# Test results from patent US6084068, “Elongin A and C functional domains” (Oklahoma Medical Research Foundation, dated 2000).
# Biological target: T1, Elongin BC complex (wild type rat Elongin B and C) (rat, UniProt P62870)
# T1 chain 1: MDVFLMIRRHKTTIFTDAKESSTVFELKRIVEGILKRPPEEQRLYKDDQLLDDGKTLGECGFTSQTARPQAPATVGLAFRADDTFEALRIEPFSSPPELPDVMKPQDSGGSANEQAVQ
# T1 chain 2: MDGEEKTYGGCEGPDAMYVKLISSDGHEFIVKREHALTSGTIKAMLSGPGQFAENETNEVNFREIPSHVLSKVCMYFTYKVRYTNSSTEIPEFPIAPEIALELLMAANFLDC
# Assay: refolded with wild type Elongin B and C; TSK SP-NPR HPLC, SDS-PAGE, silver staining
row,Binder,binding result
1,Elongin A deletion mutant 400-773 (other) TMSFESYLSYDQPRKKKKKVVKTSGTALGEKGLKKKDSKSTSKNLNSAQKLPKANENKSDKLQPAGAEPTRPRKVPTDVLPALPDIPLPAIQTNYRPLPSLELISSFQPKRKAFSSPQEEEEAGFTGRRMNSKMQVYSGSKCAYLPKMMTLHQQCIRVLKNNIDSIFEVGGVPYSVLEPVLERCTPDQLYRIEECNHVLIEETDQLWKVHCHRDFKEERPEEYESWREMYLRLQDAREQRLRLLTNNIRSAHANKPKGRQAKMAFVNSVAKPPRDVRRRQEKFGTGGAAVPEKVRIKPAPYTTGSSHVPASNSSSSFHSSPEELAYEGPSTSSAHLAPVASSSVSYDPRKPAVKKIAPMMAKTIKAFKNRFSRR,binds
2,Elongin A internal deletion mutant Δ561-564 (other) MAAESALQVVEKLQARLAANPDPKKLLKYLKKLSVLPITVDILVETGVGKTVNSFRKHEQVGNFARDLVAQWKKLVPVERNNEAEDQDFEKSNSRKRPRDVPQQEEEAEGNYQESWQASGSQPYSPEHRQKKHRKLPELERPHKVAHGHERRDERKRCHKVSPPYSSDPESSDYGHVQSPPPSSPHQMYTDLSRSPEMDQEPIVSHPKPGKVHSNTFQDRLGVSHLGEHQGKGAVSQNKPHKSSHKEKRPVDARGDEKSSVMGREKSHKASSKEESRRLLSEDSAKEKLPSSVVKKEKDREGNSLKKKLSPALDVASDNHFKKPKHKDSEKIKSDKNKQSVDSVDSGRGTGDPLPRAKDKVPNNLKAQEGKVRTNSDRKSPGSLPKVEEMDMDDEFEQPTMSFESYLSYDQPRKKKKKVVKTSGTALGEKGLKKKDSKSTSKNLNSAQKLPKANENKSDKLQPAGAEPTRPRKVPTDVLPALPDIPLPAIQTNYRPLPSLELISSFQPKRKAFSSPQEEEEAGFTGRRMNSKMQVYSGSKCAYLPKMMTLHQQCIRVLKNIFEVGGVPYSVLEPVLERCTPDQLYRIEECNHVLIEETDQLWKVHCHRDFKEERPEEYESWREMYLRLQDAREQRLRLLTNNIRSAHANKPKGRQAKMAFVNSVAKPPRDVRRRQEKFGTGGAAVPEKVRIKPAPYTTGSSHVPASNSSSSFHSSPEELAYEGPSTSSAHLAPVASSSVSYDPRKPAVKKIAPMMAKTIKAFKNRFSRR,binds
3,Elongin A internal deletion mutant Δ565-568 (other) MAAESALQVVEKLQARLAANPDPKKLLKYLKKLSVLPITVDILVETGVGKTVNSFRKHEQVGNFARDLVAQWKKLVPVERNNEAEDQDFEKSNSRKRPRDVPQQEEEAEGNYQESWQASGSQPYSPEHRQKKHRKLPELERPHKVAHGHERRDERKRCHKVSPPYSSDPESSDYGHVQSPPPSSPHQMYTDLSRSPEMDQEPIVSHPKPGKVHSNTFQDRLGVSHLGEHQGKGAVSQNKPHKSSHKEKRPVDARGDEKSSVMGREKSHKASSKEESRRLLSEDSAKEKLPSSVVKKEKDREGNSLKKKLSPALDVASDNHFKKPKHKDSEKIKSDKNKQSVDSVDSGRGTGDPLPRAKDKVPNNLKAQEGKVRTNSDRKSPGSLPKVEEMDMDDEFEQPTMSFESYLSYDQPRKKKKKVVKTSGTALGEKGLKKKDSKSTSKNLNSAQKLPKANENKSDKLQPAGAEPTRPRKVPTDVLPALPDIPLPAIQTNYRPLPSLELISSFQPKRKAFSSPQEEEEAGFTGRRMNSKMQVYSGSKCAYLPKMMTLHQQCIRVLKNNIDSGGVPYSVLEPVLERCTPDQLYRIEECNHVLIEETDQLWKVHCHRDFKEERPEEYESWREMYLRLQDAREQRLRLLTNNIRSAHANKPKGRQAKMAFVNSVAKPPRDVRRRQEKFGTGGAAVPEKVRIKPAPYTTGSSHVPASNSSSSFHSSPEELAYEGPSTSSAHLAPVASSSVSYDPRKPAVKKIAPMMAKTIKAFKNRFSRR,binds
4,Elongin A internal deletion mutant Δ545-548 (other) MAAESALQVVEKLQARLAANPDPKKLLKYLKKLSVLPITVDILVETGVGKTVNSFRKHEQVGNFARDLVAQWKKLVPVERNNEAEDQDFEKSNSRKRPRDVPQQEEEAEGNYQESWQASGSQPYSPEHRQKKHRKLPELERPHKVAHGHERRDERKRCHKVSPPYSSDPESSDYGHVQSPPPSSPHQMYTDLSRSPEMDQEPIVSHPKPGKVHSNTFQDRLGVSHLGEHQGKGAVSQNKPHKSSHKEKRPVDARGDEKSSVMGREKSHKASSKEESRRLLSEDSAKEKLPSSVVKKEKDREGNSLKKKLSPALDVASDNHFKKPKHKDSEKIKSDKNKQSVDSVDSGRGTGDPLPRAKDKVPNNLKAQEGKVRTNSDRKSPGSLPKVEEMDMDDEFEQPTMSFESYLSYDQPRKKKKKVVKTSGTALGEKGLKKKDSKSTSKNLNSAQKLPKANENKSDKLQPAGAEPTRPRKVPTDVLPALPDIPLPAIQTNYRPLPSLELISSFQPKRKAFSSPQEEEEAGFTGRRMNSKMQVYSGSKCAYLTLHQQCIRVLKNNIDSIFEVGGVPYSVLEPVLERCTPDQLYRIEECNHVLIEETDQLWKVHCHRDFKEERPEEYESWREMYLRLQDAREQRLRLLTNNIRSAHANKPKGRQAKMAFVNSVAKPPRDVRRRQEKFGTGGAAVPEKVRIKPAPYTTGSSHVPASNSSSSFHSSPEELAYEGPSTSSAHLAPVASSSVSYDPRKPAVKKIAPMMAKTIKAFKNRFSRR,binds
5,Elongin A mutant composed of residues 500 to 700 (other) LELISSFQPKRKAFSSPQEEEEAGFTGRRMNSKMQVYSGSKCAYLPKMMTLHQQCIRVLKNNIDSIFEVGGVPYSVLEPVLERCTPDQLYRIEECNHVLIEETDQLWKVHCHRDFKEERPEEYESWREMYLRLQDAREQRLRLLTNNIRSAHANKPKGRQAKMAFVNSVAKPPRDVRRRQEKFGTGGAAVPEKVRIKPAPY,binds
6,Elongin A internal deletion mutant Δ691-730 (other) MAAESALQVVEKLQARLAANPDPKKLLKYLKKLSVLPITVDILVETGVGKTVNSFRKHEQVGNFARDLVAQWKKLVPVERNNEAEDQDFEKSNSRKRPRDVPQQEEEAEGNYQESWQASGSQPYSPEHRQKKHRKLPELERPHKVAHGHERRDERKRCHKVSPPYSSDPESSDYGHVQSPPPSSPHQMYTDLSRSPEMDQEPIVSHPKPGKVHSNTFQDRLGVSHLGEHQGKGAVSQNKPHKSSHKEKRPVDARGDEKSSVMGREKSHKASSKEESRRLLSEDSAKEKLPSSVVKKEKDREGNSLKKKLSPALDVASDNHFKKPKHKDSEKIKSDKNKQSVDSVDSGRGTGDPLPRAKDKVPNNLKAQEGKVRTNSDRKSPGSLPKVEEMDMDDEFEQPTMSFESYLSYDQPRKKKKKVVKTSGTALGEKGLKKKDSKSTSKNLNSAQKLPKANENKSDKLQPAGAEPTRPRKVPTDVLPALPDIPLPAIQTNYRPLPSLELISSFQPKRKAFSSPQEEEEAGFTGRRMNSKMQVYSGSKCAYLPKMMTLHQQCIRVLKNNIDSIFEVGGVPYSVLEPVLERCTPDQLYRIEECNHVLIEETDQLWKVHCHRDFKEERPEEYESWREMYLRLQDAREQRLRLLTNNIRSAHANKPKGRQAKMAFVNSVAKPPRDVRRRQEKFGTGGAAVPSSAHLAPVASSSVSYDPRKPAVKKIAPMMAKTIKAFKNRFSRR,binds
7,Elongin A mutant composed of residues 500 to 730 (other) LELISSFQPKRKAFSSPQEEEEAGFTGRRMNSKMQVYSGSKCAYLPKMMTLHQQCIRVLKNNIDSIFEVGGVPYSVLEPVLERCTPDQLYRIEECNHVLIEETDQLWKVHCHRDFKEERPEEYESWREMYLRLQDAREQRLRLLTNNIRSAHANKPKGRQAKMAFVNSVAKPPRDVRRRQEKFGTGGAAVPEKVRIKPAPYTTGSSHVPASNSSSSFHSSPEELAYEGPST,binds
